PMC5817203, “Characterization of feedback-resistant mevalonate kinases from the methanogenic archaeons Methanosaeta concilii and Methanocella paludicola” (Microbiology, 2017)

What was measured:
[1] = target: mevalonate kinase from Methanosaeta concilii GP6 (Methanosaeta concilii GP6); assay: SEC; gel filtration of the purified enzyme; apparent mass compared with the mass calculated from the sequence; column and buffer not told
[2] = target: the molecule itself; assay: as above

Row | Molecule | stoichiometry N [1] | stoichiometry N [2]
1 | mevalonate kinase from Methanosaeta concilii GP6 (enzyme) | 4 | –
2 | mevalonate kinase from Methanocella paludicola SANAE (enzyme, UniProt D1YZ39 1-299, looked up, codon-optimised synthetic gene, coding part cloned NdeI/EcoRI into pET-28b(+); No tag removal is described; also called MVK^mpd; mpd; source: E. coli BL21 (DE3), pET-28b(+), purified (His-Trap HP, dialysis)) MTMCSAPGKVFLFGEHAVVYGKRAIACAIDLRTTVEVSRKSRGVHIHSAFKDEPDKNLYIKTAVKRMQKCADIRNVNIAVSSRIPVASGLGSSAAVTVATIGALNEEFSAGLSKKDIAYMAYQTELEVQGAASPTDTFVSTMGGTVVVPDMRTLPPITCGIVVGHTGISKSTSRMVSRVRTLKEKYPDVIDGIMDSIGDISARGEDLIKQNDYRSIGELMNVNQGLLDALGITIPELSLQIYAARQHGAYGAKITGAGGGGCMVAICDDKNCKEIATAIGRSYGDSFISKPTAEGIFIQ | – | 2
